Measured values taken from publication PMC2756588.

Each binder was assayed against T1, Myo5, Q04439 (assay: SPOT array). Conditions: median of control spots 471.
T1 sequence (Q04439 1072-1160, looked up): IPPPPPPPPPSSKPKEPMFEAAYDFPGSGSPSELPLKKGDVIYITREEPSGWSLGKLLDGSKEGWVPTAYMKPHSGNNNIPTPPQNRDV

| SPOT intensity | Binder |
| --- | --- |
| 0 | RPVPRRPSQPLNTLS |
| 230 | QPQRTAPKPPISAPR |
| 7 | IAPIPMPKPNPTHIS |

What follows are binders tested against T2, Abp1, P15891 (assay: SPOT array). Conditions: median of control spots 935.
T2 sequence (P15891 535-592, looked up): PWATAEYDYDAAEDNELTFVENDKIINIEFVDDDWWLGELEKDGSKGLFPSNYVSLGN

| SPOT intensity | Binder |
| --- | --- |
| 125 | RPVPRRPSQPLNTLS |
| 42 | QPQRTAPKPPISAPR |
| 44 | IAPIPMPKPNPTHIS |

The binders below were run against Bem1-2, P29366 (assay: SPOT array). Conditions: median of control spots 4347.
Bem1-2, P29366, sequence (P29366 139-227): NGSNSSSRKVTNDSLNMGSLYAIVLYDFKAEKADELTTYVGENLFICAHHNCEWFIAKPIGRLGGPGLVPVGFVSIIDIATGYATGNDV

| SPOT intensity | Binder |
| --- | --- |
| 75 | RPVPRRPSQPLNTLS |
| 45 | QPQRTAPKPPISAPR |
| 0 | IAPIPMPKPNPTHIS |

Each binder was assayed against T3, Pin3, Q06449 (assay: SPOT array). Conditions: median of control spots 2171.
T3 sequence (Q06449 53-122, looked up): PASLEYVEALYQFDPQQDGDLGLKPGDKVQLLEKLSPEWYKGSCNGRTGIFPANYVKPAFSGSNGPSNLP

| SPOT intensity | Binder |
| --- | --- |
| 26 | RPVPRRPSQPLNTLS |
| 7 | QPQRTAPKPPISAPR |
| 43 | IAPIPMPKPNPTHIS |

These binders were tested against Bem1-1, P29366 (assay: SPOT array). Conditions: median of control spots 4282.
Bem1-1, P29366, sequence (P29366 55-141): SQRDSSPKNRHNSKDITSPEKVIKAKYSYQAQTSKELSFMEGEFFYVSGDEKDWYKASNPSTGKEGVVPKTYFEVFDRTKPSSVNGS

| SPOT intensity | Binder |
| --- | --- |
| 0 | RPVPRRPSQPLNTLS |
| 0 | QPQRTAPKPPISAPR |
| 0 | IAPIPMPKPNPTHIS |

These binders were tested against T4, Bbc1, P47068 (assay: SPOT array). Conditions: median of control spots 796.
T4 sequence (P47068 1-78, looked up): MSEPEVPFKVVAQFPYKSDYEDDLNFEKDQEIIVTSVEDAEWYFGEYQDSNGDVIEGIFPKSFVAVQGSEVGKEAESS

| SPOT intensity | Binder |
| --- | --- |
| 423 | RPVPRRPSQPLNTLS |
| 55 | QPQRTAPKPPISAPR |
| 0 | IAPIPMPKPNPTHIS |

These binders were tested against GST (assay: SPOT array). Conditions: median of control spots 978.

| SPOT intensity | Binder |
| --- | --- |
| 0 | RPVPRRPSQPLNTLS |
| 0 | QPQRTAPKPPISAPR |
| 0 | IAPIPMPKPNPTHIS |

The binders below were run against T5, Cdc25, P04821 (assay: SPOT array). Conditions: median of control spots 969.
T5 sequence (P04821 50-136, looked up): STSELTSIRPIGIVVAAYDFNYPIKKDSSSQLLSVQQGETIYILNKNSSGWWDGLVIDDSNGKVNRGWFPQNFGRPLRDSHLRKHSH

| SPOT intensity | Binder |
| --- | --- |
| 37 | RPVPRRPSQPLNTLS |
| 3 | QPQRTAPKPPISAPR |
| 0 | IAPIPMPKPNPTHIS |

What follows are binders tested against Rvs167, P39743 (assay: SPOT array). Conditions: median of control spots 2707.
Rvs167, P39743, sequence (P39743 419-482): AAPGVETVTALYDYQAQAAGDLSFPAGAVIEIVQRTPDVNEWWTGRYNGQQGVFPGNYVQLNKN

| SPOT intensity | Binder |
| --- | --- |
| 4060 | RPVPRRPSQPLNTLS |
| 0 | QPQRTAPKPPISAPR |
| 0 | IAPIPMPKPNPTHIS |

These binders were tested against T6, Hof1, Q05080 (assay: SPOT array). Conditions: median of control spots 4086.
T6 sequence (Q05080 590-669, looked up): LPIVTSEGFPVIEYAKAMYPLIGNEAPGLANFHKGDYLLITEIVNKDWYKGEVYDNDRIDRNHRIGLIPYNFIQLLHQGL

| SPOT intensity | Binder |
| --- | --- |
| 13 | RPVPRRPSQPLNTLS |
| 0 | QPQRTAPKPPISAPR |
| 0 | IAPIPMPKPNPTHIS |

What follows are binders tested against T7, Lsb4, P32793 (assay: SPOT array). Conditions: median of control spots 397.
T7 sequence (P32793 402-468, looked up): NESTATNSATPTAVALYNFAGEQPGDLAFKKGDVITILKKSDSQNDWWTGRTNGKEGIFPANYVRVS

| SPOT intensity | Binder |
| --- | --- |
| 163 | RPVPRRPSQPLNTLS |
| 1 | QPQRTAPKPPISAPR |
| 9 | IAPIPMPKPNPTHIS |

The binders below were run against T8, Bzz1-2, P38822 (assay: SPOT array). Conditions: median of control spots 4538.
T8 sequence (P38822 568-633, looked up): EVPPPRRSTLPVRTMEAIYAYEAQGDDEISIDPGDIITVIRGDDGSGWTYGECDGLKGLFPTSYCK

| SPOT intensity | Binder |
| --- | --- |
| 13 | RPVPRRPSQPLNTLS |
| 2 | QPQRTAPKPPISAPR |
| 0 | IAPIPMPKPNPTHIS |

The binders below were run against T9, Nbp2, Q12163 (assay: SPOT array). Conditions: median of control spots 357.
T9 sequence (Q12163 103-180, looked up): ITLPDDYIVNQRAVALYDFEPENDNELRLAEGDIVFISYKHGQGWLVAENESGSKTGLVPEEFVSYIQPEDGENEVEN

| SPOT intensity | Binder |
| --- | --- |
| 71 | RPVPRRPSQPLNTLS |
| 276 | QPQRTAPKPPISAPR |
| 1 | IAPIPMPKPNPTHIS |

Each binder was assayed against T10, Hse1, P38753 (assay: SPOT array). Conditions: median of control spots 1727.
T10 sequence (P38753 208-285, looked up): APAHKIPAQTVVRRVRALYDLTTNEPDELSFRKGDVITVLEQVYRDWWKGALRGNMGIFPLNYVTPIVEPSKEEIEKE

| SPOT intensity | Binder |
| --- | --- |
| 34 | RPVPRRPSQPLNTLS |
| 0 | QPQRTAPKPPISAPR |
| 0 | IAPIPMPKPNPTHIS |

Each binder was assayed against Sho1, P40073 (assay: SPOT array). Conditions: median of control spots 1148.
Sho1, P40073, sequence (P40073 287-367): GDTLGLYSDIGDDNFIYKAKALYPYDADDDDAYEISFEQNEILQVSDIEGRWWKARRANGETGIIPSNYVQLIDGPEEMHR

| SPOT intensity | Binder |
| --- | --- |
| 95 | RPVPRRPSQPLNTLS |
| 0 | QPQRTAPKPPISAPR |
| 0 | IAPIPMPKPNPTHIS |

The binders below were run against T11, Sla1-2, P32790 (assay: SPOT array). Conditions: median of control spots 712.
T11 sequence (P32790 60-140, looked up): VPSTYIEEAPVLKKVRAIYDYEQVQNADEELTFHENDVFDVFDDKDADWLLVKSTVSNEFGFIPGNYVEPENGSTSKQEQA

| SPOT intensity | Binder |
| --- | --- |
| 0 | RPVPRRPSQPLNTLS |
| 0 | QPQRTAPKPPISAPR |
| 1 | IAPIPMPKPNPTHIS |

Each binder was assayed against Myo3, P36006 (assay: SPOT array). Conditions: median of control spots 468.

| SPOT intensity | Binder |
| --- | --- |
| 5 | RPVPRRPSQPLNTLS |
| 294 | QPQRTAPKPPISAPR |
| 22 | IAPIPMPKPNPTHIS |

Each binder was assayed against T12, Lsb1, P53281 (assay: SPOT array). Conditions: median of control spots 388.
T12 sequence (P53281 45-122, looked up): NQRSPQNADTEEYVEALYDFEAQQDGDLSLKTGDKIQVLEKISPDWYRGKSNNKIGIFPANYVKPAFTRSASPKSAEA

| SPOT intensity | Binder |
| --- | --- |
| 94 | RPVPRRPSQPLNTLS |
| 3 | QPQRTAPKPPISAPR |
| 2 | IAPIPMPKPNPTHIS |

These binders were tested against T13, Bzz1-1, P38822 (assay: SPOT array). Conditions: median of control spots 4446.
T13 sequence (P38822 478-572, looked up): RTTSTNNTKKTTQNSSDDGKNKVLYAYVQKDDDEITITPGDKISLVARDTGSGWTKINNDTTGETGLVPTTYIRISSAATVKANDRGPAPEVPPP

| SPOT intensity | Binder |
| --- | --- |
| 0 | RPVPRRPSQPLNTLS |
| 2 | QPQRTAPKPPISAPR |
| 0 | IAPIPMPKPNPTHIS |

These binders were tested against T14, Fus1, P11710 (assay: SPOT array). Conditions: median of control spots 1200.
T14 sequence (P11710 432-512, looked up): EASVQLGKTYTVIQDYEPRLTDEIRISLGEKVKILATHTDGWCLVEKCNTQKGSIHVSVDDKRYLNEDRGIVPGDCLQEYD

| SPOT intensity | Binder |
| --- | --- |
| 0 | RPVPRRPSQPLNTLS |
| 0 | QPQRTAPKPPISAPR |
| 0 | IAPIPMPKPNPTHIS |

The binders below were run against T15, Lsb3, P43603 (assay: SPOT array). Conditions: median of control spots 406.
T15 sequence (P43603 385-451, looked up): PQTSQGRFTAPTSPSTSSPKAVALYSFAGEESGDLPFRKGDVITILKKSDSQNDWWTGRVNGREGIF

| SPOT intensity | Binder |
| --- | --- |
| 138 | RPVPRRPSQPLNTLS |
| 2 | QPQRTAPKPPISAPR |
| 0 | IAPIPMPKPNPTHIS |

The binders below were run against T16, Boi1, P38041 (assay: SPOT array). Conditions: median of control spots 1162.
T16 sequence (P38041 1-86, looked up): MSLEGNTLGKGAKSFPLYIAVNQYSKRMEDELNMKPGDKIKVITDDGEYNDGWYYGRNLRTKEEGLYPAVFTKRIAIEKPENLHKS

| SPOT intensity | Binder |
| --- | --- |
| 0 | RPVPRRPSQPLNTLS |
| 0 | QPQRTAPKPPISAPR |
| 0 | IAPIPMPKPNPTHIS |

These binders were tested against T17, Pex13, P80667 (assay: SPOT array). Conditions: median of control spots 1341.
T17 sequence (P80667 295-386, looked up): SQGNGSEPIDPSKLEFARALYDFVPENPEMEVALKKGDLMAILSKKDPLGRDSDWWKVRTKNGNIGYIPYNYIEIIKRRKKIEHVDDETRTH

| SPOT intensity | Binder |
| --- | --- |
| 348 | RPVPRRPSQPLNTLS |
| 44 | QPQRTAPKPPISAPR |
| 54 | IAPIPMPKPNPTHIS |

The binders below were run against T18, Bud14, P27637 (assay: SPOT array). Conditions: median of control spots 956.
T18 sequence (P27637 247-328, looked up): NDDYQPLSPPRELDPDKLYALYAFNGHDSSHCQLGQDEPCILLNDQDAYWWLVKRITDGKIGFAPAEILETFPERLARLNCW

| SPOT intensity | Binder |
| --- | --- |
| 11 | RPVPRRPSQPLNTLS |
| 2 | QPQRTAPKPPISAPR |
| 0 | IAPIPMPKPNPTHIS |

The binders below were run against T19, Boi2, P39969 (assay: SPOT array). Conditions: median of control spots 1161.
T19 sequence (P39969 32-116, looked up): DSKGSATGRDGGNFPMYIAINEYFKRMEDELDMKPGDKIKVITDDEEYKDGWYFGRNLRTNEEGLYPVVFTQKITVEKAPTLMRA

| SPOT intensity | Binder |
| --- | --- |
| 1 | RPVPRRPSQPLNTLS |
| 1 | QPQRTAPKPPISAPR |
| 1 | IAPIPMPKPNPTHIS |

Each binder was assayed against T20, Sla1-3, P32790 (assay: SPOT array). Conditions: median of control spots 5475.
T20 sequence (P32790 344-424, looked up): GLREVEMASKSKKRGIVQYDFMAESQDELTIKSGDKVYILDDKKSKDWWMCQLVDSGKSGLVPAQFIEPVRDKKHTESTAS

| SPOT intensity | Binder |
| --- | --- |
| 31 | RPVPRRPSQPLNTLS |
| 9 | QPQRTAPKPPISAPR |
| 0 | IAPIPMPKPNPTHIS |

The binders below were run against T21, Cyk3, Q07533 (assay: SPOT array). Conditions: median of control spots 1451.
T21 sequence (Q07533 1-83, looked up): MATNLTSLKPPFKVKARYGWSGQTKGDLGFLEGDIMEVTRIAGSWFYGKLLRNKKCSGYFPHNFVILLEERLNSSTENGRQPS

| SPOT intensity | Binder |
| --- | --- |
| 1 | RPVPRRPSQPLNTLS |
| 0 | QPQRTAPKPPISAPR |
| 1 | IAPIPMPKPNPTHIS |
